# T1: His-SUMO-FREE1 (Arabidopsis thaliana, UniProt Q9ASS2 1-601)
# T1 construct: FREE1 (FYVE1), Arabidopsis thaliana, locus AT1G20110; also called Sumo-tagged FREE1; not shown: His, N-terminal, kept; SUMO, N-terminal, kept
# T1 sequence (looked up): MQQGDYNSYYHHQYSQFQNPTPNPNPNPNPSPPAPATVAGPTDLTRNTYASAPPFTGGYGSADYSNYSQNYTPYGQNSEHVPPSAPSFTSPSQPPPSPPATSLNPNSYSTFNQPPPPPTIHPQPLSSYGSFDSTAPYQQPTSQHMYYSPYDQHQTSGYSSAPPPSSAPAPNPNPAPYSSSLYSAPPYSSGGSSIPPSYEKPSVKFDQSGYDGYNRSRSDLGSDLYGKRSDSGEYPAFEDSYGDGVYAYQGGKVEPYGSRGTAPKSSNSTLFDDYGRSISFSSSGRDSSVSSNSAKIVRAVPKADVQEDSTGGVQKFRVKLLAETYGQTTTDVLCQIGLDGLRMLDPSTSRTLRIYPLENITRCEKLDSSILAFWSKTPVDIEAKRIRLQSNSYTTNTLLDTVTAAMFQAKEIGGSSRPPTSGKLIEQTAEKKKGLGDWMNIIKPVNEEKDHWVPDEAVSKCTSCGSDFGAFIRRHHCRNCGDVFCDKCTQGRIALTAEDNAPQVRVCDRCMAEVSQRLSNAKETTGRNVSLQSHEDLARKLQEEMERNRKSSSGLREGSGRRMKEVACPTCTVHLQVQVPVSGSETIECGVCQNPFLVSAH
# Molecular target: T1, His-SUMO-FREE1
# Test: pull-down; competition: in vitro binding assay on amylose resin bound with MBP-Vps23A (or the Vps23A CC domain as bait) with a constant amount of one His-SUMO protein (30 pmol BRAF) and 10, 30, 100 or 300 pmol of the competing His-SUMO protein; immunoblot, quantified
# Conditions: both partners purified
binder,measurement,value
"MBP-Vps23A (natural protein, Arabidopsis thaliana, UniProt Q9LHG8 1-398, looked up, Vps23A/ELC, Arabidopsis thaliana, locus AT3G12400; Vector: in-house pRHisMBP; it may also add a His tag; source: E. coli BL21(DE3) pLysS, purified (amylose resin); not shown: MBP, N-terminal, kept) MVPPPSNPQQVQQFLSSALSQRGPSSVPYEESNKWLIRQHLLNLISSYPSLEPKTASFMHNDGRSVNLLQADGTIPMPFHGVTYNIPVIIWLLESYPRHPPCVYVNPTADMIIKRPHAHVTPSGLVSLPYLQNWVYPSSNLVDLVSDLSAAFARDPPLYSRRRPQPPPPSPPTVYDSSLSRPPSADQSLPRPFPPSPYGGGVSRVQVQHVHHQQQSDDAAEVFKRNAINKMVEMVHSDLVSMRRAREAEAEELLSLQAGLKRREDELNIGLKEMVEEKETLEQQLQIISMNTDILDSWVRENQGKTKNLVDLDVDNAFECGDTLSKQMLECTALDLAIEDAIYSLDKSFQDGVVPFDQYLRNVRLLSREQFFHRATGSKVRAAQMEVQVAAIAGRLHS",binding result,binds
